Experimental findings from patent US20100120700A1, “METHODS AND COMPOSITIONS FOR TREATING CERVICAL CANCER” (priority 2000, published 2010) are described below.

For assay [1], the system named is c-JUN N-terminal kinase (JNK). Kind of assay: Jun kinase assay in microinjected Xenopus oocytes. It is filed as cell-based. Also on record: inhibition of HPV16 E6-dependent JNK activation by co-injected peptide: dose or concentration left out as unconfirmed. The settings on record: Xenopus oocytes; for JNK activation by microinjected E6 fusion protein: MBP-E6 or GST-E6 protein (100 nM, 3h), GST-Jun phosphorylation. As for the experimental part:
Experimental Design: This experiment was divided into two phases. In the first phase, an MBP-E6 fusion protein (HPV16; see example 4) was microinjected into Xenopus oocytes at different concetrations and then the oocytes were assayed for INK activity. In the second phase, peptides corresponding to the C-termini of non-oncogenic E6 protein (HPV11), HPV16 E6 (oncogenic) or Tax (shown to block oncogenic E6 binding to PDZ domains, FIG. 3) were co-injected with an activating amount of MBP-E6 fusion protein to assess ther abilities to block JNK activation.
Isolation and Microinjection of Oocytes—Xenopus ovarian tissue was surgically removed, and oocytes were defolliculated for 1-1.5 h at room temperature with 2 mg/ml collagenase and 0.5 mg/ml polyvinylpyrrolidone in Ca21-free modified Barth's solution (88 mM NaCl, 1 mM KCl, 0.82 mM MgSO4, 2.4 mM NaHCO3, 10 mM HEPES, pH 7.5). The oocytes were then washed four times with modified Barth's solution. Stage VI oocytes were sorted manually and incubated at 16° C. for at least 10 h in OR2 solution (82.5 mM NaCl, 2.5 mM KCl, 1 mM CaCl2, 1 mM Na2HPO4, 5 mM HEPES, pH 7.5) supplemented with 1 mg/ml bovine serum albumin and […] gentamicin. Immature oocytes were microinjected with purified MBP-E6 protein or E6 protein and peptide and transferred to fresh OR2 for the duration of the time course. Five oocytes were collected per time point, frozen on dry ice, and stored at −80° C.
Lysis of Oocytes, Eggs, and Embryos—Frozen oocytes, eggs, and embryos were thawed rapidly and lysed by pipetting up and down in 60 ml of ice-cold extraction buffer (EB) (0.25 M sucrose, 0.1 M NaCl, 2.5 mM MgCl2, 20 mM HEPES, pH 7.2) containing 10 mM EDTA, protease inhibitors (10 mg/ml leupeptin, 10 mg/ml pepstatin, 10 mg/ml aprotinin, 1 mM phenylmethylsulfonyl fluoride), and phosphatase inhibitors (50 mM 2-glycerophosphate, 1 mM sodium orthovanadate, 2 mM microcystin). Samples were clarified by centrifugation for 2.5 min in a Beckman E microcentrifuge with a right angle rotor. Crude cytoplasm was collected and processed for immunoblotting or kinase assays, as described below.
Jun Kinase Assay—Jun kinase assays were performed as described. Crude oocyte, egg, or embryo cytoplasm was diluted 1:1 in EB and pre-cleared with 20 ml of glutathione-Sepharose beads (Amersham Pharmacia Biotech) for 1 h at 4° C. with moderate shaking. Lysates were incubated with glutathione S-transferase GST-c-Jun-(1-79) fusion protein (hereafter denoted GST-Jun) immobilized on glutathione- Sepharose beads. After 3 h at 4° C., the beads were washed three times with 50 mM HEPES, pH 7.5, 150 mM NaCl, 1% Triton X-100, 1 mM EDTA, 10% glycerol, 10 mM sodium pyrophosphate, 2 mM sodium orthovanadate, 10 mM sodium fluoride, 1 mM phenylmethylsulfonyl fluoride, and 10 mg/ml aprotinin (24) and once with 0.4 ml of kinase buffer (20 mM HEPES, pH 7.5, 10 mM MgCl2, 1 mM dithiothreitol, 200 mM sodium orthovanadate). The bound JNK activity was detected by the addition of 1 mCi of [g-32]JATP. The reaction was terminated after 20 min at 30° C., and the products were resolved by SDS-PAGE. The gels were transferred to PVDF membranes (Hybond; Amersham Pharmacia Biotech) and the incorporation of [32P]phosphate into GST-Jun was visualized by autoradiography. […]

In assay [2] the target is T1, HPV16 E6/TIP 1 interaction (Homo sapiens, UniProt O14907).
T1 construct: made in house; host or cells: E. coli
T1 sequence (O14907 14-116): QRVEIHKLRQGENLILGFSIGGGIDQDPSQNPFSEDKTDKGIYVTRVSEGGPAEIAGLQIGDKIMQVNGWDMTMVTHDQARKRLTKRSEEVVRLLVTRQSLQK
Briefly: Modified G assay, inhibition of TIP1-HPV E6 16 binding. The conditions noted are these: HPV E6 16 peptide 10 uM, TIP1 fusion protein 5 ug/mL, Tax peptide 0.001-100 uM, FIG. 3. As to the method: In one embodiment (in which a G assay is used), one or more PDZ domain-containing GST-fusion proteins are bound to the surface of wells of a 96-well plate as described supra (with appropriate controls including nonfusion GST protein). All fusion proteins are bound in multiple wells so that appropriate controls and statistical analysis can be done. A test compound in BSA/PBS (typically at multiple different concentrations) is added to wells. Immediately thereafter, 30 uL of a detectably labeled (e.g., biotinylated) peptide known to bind to the relevant PDZ domain (see, e.g., TABLE 3) is added in each of the wells at a final concentration of, e.g., between about 2 uM and about 40 uM, typically 5 uM, 15 uM, or 25 uM. […] The surface is washed free of unbound peptide three times with ice cold PBS and the amount of binding of the peptide in the presence and absence of the test compound is determined. Usually, the level of binding is measured for each set of replica wells (e.g. duplicates) by subtracting the mean GST alone background from the mean of the raw measurement of peptide binding in these wells. […]
Protocol • 1. […] Take early readings, if necessary, at 650 nm • 17. At 30 minutes, stop reaction with 100 ul of 0.18M H2SO4, and take final reading at 450 nm […]

“Also recorded” adds a separate entry of the source.

Take “HPV18 E6: recombinant GST-E6 fusion protein of HPV18 microinjected into Xenopus oocytes”: the “JNK activation by microinjected E6 fusion protein” value in assay [1] is listed as “activated the JNK MAPK pathway in the oocyte”.
“Tax PL peptide: unlabeled peptide corresponding to the C-terminus of Tax, an independent PDZ ligand that binds similar PDZ domains (QISPGGLEPPSEKHFRETEV)”: the “inhibition of binding between TIP1 and HPV E6 16 (A450)” value in assay [2] is “decrease binding between TIP1 and HPV E6 16”; in assay [2] (listed as Tax peptide), “Inhibition of the interaction between HPV E6 16 and TIP1”. Further, in assay [1] (co-injected with activating amount of HPV16 E6 fusion protein), the “inhibition of HPV16 E6-dependent JNK activation by co-injected peptide” value is “can be inhibited by co-injection”.

B1: HPV16 E6: recombinant full length HPV16 E6 fusion protein (MBP-E6 or GST-E6) microinjected into Xenopus oocytes (protein)
chain: MHQKRTAMFQDPQERPRKLPQLCTELQTTIHDIILECVYCKQQLLRREVYDFAFRDLCIVYRDGNPYAVCDKCLKFYSKISEYRHYCYSLYGTTLEQQYNKPLCDLLIRCINCQKPLCPEEKQRHLDKKQRFHNIRGRWTGRCMSCCRSSRTRRETQL
As for B1, the “JNK activation by microinjected E6 fusion protein” value is recorded as “activates c-JUN N-terminal kinase; also recorded: activated the JNK MAPK pathway in the oocyte” in assay [1] and “activates c-JUN N-terminal kinase (JNK)” in assay [1] (listed as HPV E6 16).
